Reference: the supplement of paper PMC9170038

Tested on: MS2 coat protein
Assay: apparent KD of MS2 coat protein; designed switch direction (-1 OFF switch, 1 ON switch): -1; higher = weaker reporter binding
In short: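 Designed RNA switches with common flanks were transcribed on Illumina chips by stalled E. coli RNA polymerase and titrated with SNAP-549-labelled MS2 coat protein, from 0.7 or 1.5 nM doubling to 3 µM, in Tris-HCl pH 7.5 buffer with KCl, MgCl2, BSA, DTT, tRNA and Tween-20. Steps lasted 0.8–1.5 h (lowest) to 10–20 min (highest). Titrations ran without input, with 200 uM small-molecule ligand, or with an oligonucleotide input. Normalised cluster fluorescence was curve-fitted, and apparent KD is the per-design median over clusters.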

[1] = input ligand: microRNA oligo, concentration not stated
[2] = Eterna round: R95, input ligand: microRNA oligo, concentration not stated
[3] = Eterna round: R95, input ligand: FMN 200 uM
[4] = Eterna round: R95, input ligand: none

Sequence	apparent KD of MS2 coat protein (input ligand: FMN 200 uM)	apparent KD of MS2 coat protein (input ligand: none)	apparent KD of MS2 coat protein [1]	apparent KD of MS2 coat protein [2]	apparent KD of MS2 coat protein [3]	apparent KD of MS2 coat protein [4]
UUACAGCAAGGAUAUACAUGAGGAUCACCCAUGUAUGCAUGUUCGAGAGAGGCCUACGGUAGAAGGUGCAUGUU [EX3 C.11] (Eterna round: R97, puzzle: Exclusion 3)	0.0252 µM	0.0398 µM				
CACAAGCUUGGGCUCGCUGACAUGAGGAUCACCCAUGUCGGAUCAGACACCAAACGUCUCGAUCACGACGGAUCCAG [Eternabot (Original) Solution 7] (Eterna round: R97, puzzle: Sensor, turn-off variant 1)	0.04 µM	0.0333 µM				
UAUAUAUAGUAAGGAUAUGUAUUUAAUUUAUAAACAGAAGGUACUGACAUGAGGAUCACCCAUGUUUUAGUGUGGGCAUGUAGA [JMF's solution 13] (Eterna round: R96, puzzle: Exclusion NG 1)			0.0808 µM			
UACAUGAGGAUCACCCAUGUUUUGUCGUGUAUGGUAUUUAUCUAGGAUAUCAUUGUAUUUAGUUAUGAGAAGGAGAAUAUUAAU [JMF's solution 83] (Eterna round: R96, puzzle: Exclusion NG 3)	0.0302 µM	0.033 µM	0.0229 µM			
GUCCUCUUGACAUGAGGAUCACCCAUGUAUUAUUUGUUAACUGAGGAUAUACUCUUAUUUUUUAUGUAGAAGGCAGAUUUGUUC [JR_ExcNG3_Sub022] (Eterna round: R96, puzzle: Exclusion NG 3)			0.0321 µM			
UUUUUGUGAGGAUAUCAGUAGUAAAAAAAUAAAAUUACUACUGAGAAGGCACAUGAGGAUCACCCAUGUUUUUC [salish99_ex4_r3_014] (puzzle: Exclusion 4)				0.0356 µM		
UUUUGGCAUGUAGGAUAUGGGUCCGAUUGGGAUUUAGAAGGACAUGAGGAUCACCCAUGUGCCCUUACUUGGUCUUUUUUUUUU [EXclNG1-LROPPY19] (Eterna round: R96, puzzle: Exclusion NG 1)	0.298 µM	0.228 µM	0.128 µM			
CCUCAACAGUAGGAUAUCAUCAAACUAUUGUGAUGAGAAGGACUGACAUGAGGAUCACCCAUGUUAACGUGAUA [Exclusion 6 - 6:a] (puzzle: Exclusion 6)				0.0384 µM	0.0389 µM	0.0449 µM
UGACAGGAGUAGGAUAUGCCCACCGUCCGACUGGCAGAAGGACUCACAUGAGGAUCACCCAUGUAGUUAUGUAC [Eternabot (L2) Solution 96] (Eterna round: R97, puzzle: Exclusion 6)	0.0201 µM	0.016 µM				
GGUUUGCAGCAGGAUAUCCAUCCGCGGUAUGGUGGAGAAGGGCUGACAUGAGGAUCACCCAUGUGCGUCCUAGG [salish99_ex6_r4_017] (Eterna round: R97, puzzle: Exclusion 6)	0.0586 µM	0.0276 µM				
GUUUCACAUGAGGAUCACCCAUGUGAGGAUAUGGACUUUUUGGCAAUAGUCGUUGGGUUCAGAAGGCGCGUGAU [JR_Exc1_Sub006] (Eterna round: R97, puzzle: Exclusion 1)	0.0452 µM	0.0494 µM				
GCGCCAUCGUGAGAUGGCGUAUUUACAUGAGGAUCACCCAUGUAGGAUAUCGAUUGCUUUGCAGUCGAGAAGGGCAUGAUAAGU [JL ENG3 3.78] (Eterna round: R96, puzzle: Exclusion NG 3)	0.0725 µM	0.0545 µM	0.0373 µM			
UUUACAAGCUAUAGAUCCCACAUGAGGAUCACCCAUGUUGCUGCCGGUGACGGUAGCAUAACUAUUGCUCGUCUUAU [JL TOV1 3.61] (Eterna round: R97, puzzle: Sensor, turn-off variant 1)	0.15 µM	0.185 µM				
GAGAAACAUGAGGAUCACCCAUGUGAGGAUAUGAAAAAGAAAAGAAAAGAAAGAAGAAUCAGAAGGCACAAAGC [salish99-ex1_r3_091] (puzzle: Exclusion 1)				0.0324 µM	0.0231 µM	0.03 µM
GCCAGAGCAGGAUAUUCAAUAAUUCACAUGAGGAUCACCCAUGUCGAGCGAAAGCUCGAGGGAGAAGGGCUCUGGC [Fiskers Ex 5 - 6] (puzzle: Exclusion 5)				0.0348 µM	0.0143 µM	0.0394 µM
AAAGAAGAAGUCAGGAUAUAGUUAAAGAAGACCGACUAGAAGGGACAUGAGGAUCACCCAUGUGUCAGUGGGUA [Lasoaned] (puzzle: Brourd's mod of Exclusion 4)				0.0776 µM	0.279 µM	0.133 µM
CGUCAGUCAGGAUAUGCAUACGUAGACAUGAGGAUCACCCAUGUGACGUGGGACUGGUGUGUAGAAGGGACGAACA [EX5 #78] (Eterna round: R97, puzzle: Exclusion 5)	0.0231 µM	0.0213 µM				
CUGAUGGACUAGGAUAUCCUCAUCGAUCAGGGAGGAGAAGGAGUCACAUGAGGAUCACCCAUGUGAUGGUAAAA [Atqubi] (puzzle: Exclusion 6)				0.0119 µM	0.0149 µM	0.0136 µM
AUGCUCCGUGUAGGAUAUCGCCGCACCACCCGGCGAGAAGGACAUGAGGAUCACCCAUGUAUGUUAUUAUCACGUGUGGCGCGC [Design 42] (Eterna round: R96, puzzle: Exclusion NG 1)	0.0172 µM	0.0136 µM	0.0123 µM			
UUUUAGAGAGGAUAUAUAUUGUGAAACAUGAGGAUCACCCAUGUAAUAAUAUGGAUAUAAAUAGAAGGCUCAUUUA [Mat - Exclusion 5 - JL mod - D8] (puzzle: Exclusion 5)				0.0269 µM	0.0257 µM	0.0288 µM
CUUUUGUGAGGAUAUCAGUAGUAAUAAUAUAAAAUUACUACUGAGAAGGCACAUGAGGAUCACCCAUGUUCCUC [salish99_ex3_r3_102] (puzzle: Exclusion 4)				0.0363 µM		
UACACCACAUGAGGAUCAAACAUGAGGAUCACCCAUGUAUAGCAAGCUUUUUGCUCGUCUUAUAAAUAUGUGGUGUA [Electric Eye 6 - Jieux - Sensor, turn-off variant 1] (Eterna round: R97, puzzle: Sensor, turn-off variant 1)	0.0149 µM	0.0149 µM				
GAAUUAAUUAAUUAAUAAUACAUGAGGAUCACCCAUGUAGAUCCUACAUACAAUUUAAGUAGCUCGUCUUAUAAUUA [Stov1/1-A2] (Eterna round: R97, puzzle: Sensor, turn-off variant 1)	0.108 µM	0.202 µM				
CCAUGUCCAGAGGAUAUGUAGCGGAUAACCGCAACAGAAGGCUGGACAUGAGGAUCACCCAUGUGCGCCUUCCA [Vege] (Eterna round: R97, puzzle: Exclusion 6)	0.313 µM	0.534 µM				
CAAACAAGCGAAAGAUCCCACAUGAGGAUCACCCAUGUGCUCGUCUUAUAAGGUACUGUGACGAUAGUCACGGUACC [Mat - Sensor, turn-off var - Eli Mod - D79] (Eterna round: R97, puzzle: Sensor, turn-off variant 1)	0.0368 µM	0.0452 µM				
